Experimental data as given in patent publication US20250250350A1.

Key:
MSLN-Bio (human) = MSLN-Bio (human) (UniProt Q13421); experiment: flow cytometry, lentivirally transduced primary T cells, stained with ALPG-AF647 (PrimeR axis) and MSLN-Bio / streptavidin-PE (CAR axis)
ALPG-AF647 (human) = ALPG-AF647 (human) (UniProt P10696); experiment: flow cytometry, lentivirally transduced primary T cells without PrimeR, stained with ALPG-AF647 (PrimeR axis) and MSLN-Bio / streptavidin-PE (CAR axis)
ALPG-AF647 (human), sequence (P10696 20-503 limits assumed): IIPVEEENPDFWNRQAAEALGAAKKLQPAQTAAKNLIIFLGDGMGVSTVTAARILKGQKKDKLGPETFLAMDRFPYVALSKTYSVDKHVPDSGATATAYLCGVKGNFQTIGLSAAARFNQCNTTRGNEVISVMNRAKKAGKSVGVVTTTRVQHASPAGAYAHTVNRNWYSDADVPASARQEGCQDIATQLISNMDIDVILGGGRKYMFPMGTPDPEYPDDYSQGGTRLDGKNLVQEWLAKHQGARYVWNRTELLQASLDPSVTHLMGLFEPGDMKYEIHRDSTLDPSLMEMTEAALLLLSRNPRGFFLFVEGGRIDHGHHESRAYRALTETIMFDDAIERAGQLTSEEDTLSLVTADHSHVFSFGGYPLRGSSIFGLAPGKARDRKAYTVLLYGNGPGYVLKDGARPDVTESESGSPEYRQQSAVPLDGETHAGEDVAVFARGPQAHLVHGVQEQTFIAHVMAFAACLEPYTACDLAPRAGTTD

MSLN-Bio (human), sequence (Q13421 other isoform, or with tags, fused parts or gaps limits assumed): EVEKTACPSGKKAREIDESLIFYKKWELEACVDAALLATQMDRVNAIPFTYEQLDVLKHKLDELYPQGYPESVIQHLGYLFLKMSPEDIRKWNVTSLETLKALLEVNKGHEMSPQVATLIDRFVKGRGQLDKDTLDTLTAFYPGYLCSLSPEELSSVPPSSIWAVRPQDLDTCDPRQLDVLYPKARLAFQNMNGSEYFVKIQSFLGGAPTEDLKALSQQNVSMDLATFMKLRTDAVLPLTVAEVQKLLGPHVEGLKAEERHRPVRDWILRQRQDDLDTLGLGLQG

% of cells PrimeR+ CAR+ (upper right quadrant) (MSLN-Bio (human)): 0.59%
% of cells PrimeR- CAR+ (upper left quadrant) (MSLN-Bio (human)): 59.2%
% of cells PrimeR+ CAR+ (upper right quadrant) (ALPG-AF647 (human)): 0.59%
% of cells PrimeR+ CAR- (lower right quadrant) (ALPG-AF647 (human)): 0.079%
Substance: SS1 CAR
